# In a protein production outcome set (Wang et al. 2014):
# Test: label from the status in PepcDB records
# 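Note: failed if final PepcDB status was selected cloned or expressed and not failed if soluble or beyond.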
row,Sequence,protein production
1,MDKNNNNLRLILAIALSFLFIALYSYFFQKPNKTTTQTTKQETTNNHTATSPNAPNAQHFSTTQTTPQENLLSTISFEHARIEIDSLGRIKQVYLKDKKYLTPKQKGFLEHVGHLFSSKENAQPPLKELPLLAADKLKPLEVRFLDPTLNNKAFNTPYSASKTTLGPNEQLVLTQDLGTLSIIKTLTFYDDLHYDLKIAFKSPNNLIPSYVITNGYRPVADLDSYTFSGVLLENSDKKIEKIEDKDAKEIKRFSNTLFLSSVDRYFTTLLFTKDPQGFEALIDSEIGTKNPLGFISLKNEANLHGYIGPKDYRSLKAISPMLTDVIEYGLITFFAKGVFVLLDYLYQFVGNWGWAIILLTIIVRIILYPLSYKGMVSMQKLKELAPKMKELQEKYKGEPQKLQAHMMQLYKKHGANPLGGCLPLILQIPVFFAIYRVLYNAVELKSSEWILWIHDLSIMDPYFILPLLMGASMYWHQSVTPNTMTDPMQAKIFKLLPLLFTIFLITFPAGLVLYWTTNNILSVLQQLIINKVLENKKRMHAQNKKEH,failed
2,MDKPILKDSMKLFEALGTIKSRSMFGGFGLFADETMFALVVNNQLHIRADQQTSSDFETQGLKPYVYKKRGFPVVTKYYAISSELWESSDRLIEVAKKSLENAKL,not failed
3,MDKPVLKDSMRLFEQLGRVKSRSMFGGFGIFVDETMFALVVNDTLHIRADDATIEKYKQQGYEPYVYKKRGFPVVTKYYALPEDCWSHPDSILNEVRAALEVAKA,failed
4,MDKQAILDNIHQTWQEEANAISRLPEVTSEEALVKTVEKIAECTGKIVVAGCGTSGVAAKKLVHSFNCIERPAVFLTPSDAVHGTLGVLQKEDILILISKGGNTGELLNLIPACKTKGSTLIGVTENPDSVIAKEADIFFPVSVSKEPDPFNMLATASTMAVIASFDAVIVCLMTYMNYTKEQFSVIHPGGAVGNKLLNK,not failed
5,MDKRFVQAHKEARWALWLTLLYLAAWLAAAYLPGVAIGFTGLPHWFEMACLLVPLLFILLCWAMVKLIFRDISLEDDDAV,failed
6,MDKRRVVVTGVGAVTPIGNDAETSWENAKKGVNGVAKMTRLNPDDFPVKIAAELKDFDVEKYLEKKEARKMDRFTHYAIASAEMAVQDSGLVIDDSNANRVGVWIGSGIGGMETFETQYEIFLNRGHRRVSPFFVPMMIPDMGSGQVSIRFGAKGINSTTVTACATATNSIGDAFKVIERGDADAMITGGAEAPITKMSLAGFTANKALSLNPDPETACRPFDKDRDGFIIGEGAGIVILEEYEHAKARGAKIYAEIVGYGATGDAYHITAPAPNGEGAARAMKMAIDDAGLTPDKVDYINAHGTSTPYNDEYETQAIKTVFGEHAKKLAISSTKSMTGHTLGASGGIEAIFALLTIRDNIIAPTIHLKNQDEVCDLDYVPNEAREANVNVVISNSFGFGGHNATLVFKRIED,not failed
7,MDKTKTFCKASLVSIALVLLLVSSAALAATENDTGNATIKDDYVSSTAMANTEGSSLPKVTETQITTSGFHPAIYGNRIVWTDYHDEECNIYMYDLSTKKETQITTSGDVSGSDIYGNRIVWSNYVYPNEVYMYDLSTSQKSTISGYNSYVDSLSIYGDKVVWGDSLDDYVSIFMHDLSTKEETLLTYDAYNPAIYGNRIVWEDRFDDNIYMYDISTKKQTRITNGGAADDPAIYGNRIVYASTHDGNTDIYMYDLSTKKQTQITSSPDAQTHPAIYGNRIVWEDDGGEDDGYTNHGIYMYDISTNQKMKISTKGSAYSPTIYGNNIVWEYYNNENGKLRNLHGHYFRTKTEPSYCCILCIPNFRKNTIKSYFY,failed
8,MDKTNLGELINQGKSLLDESVEGFNVGEYHKGAKDGLTVEINKAEEVFNKEDATEEEINLAKESLEGAIARFNSLLIEESTGDFNGNGKIDIGDLAMVSKNIGSTTNTSLDLNKDGSIDEYEISFINHRILNLEHHHHHH,not failed
9,MDKVYLTWWQVDRAIFALAEKLREYKPDVIIGVARGGLIPAVRLSHILGDIPLKVIDVKFYKGIDERGEKPVITIPIHGDLKDKRVVIVDDVSDTGKTLEVVIEEVKKLGAKEIKIACLAMKPWTSVVPDYYVFRTEKWIVFPWEEFPVIEKE,not failed
10,MDLDYGGVPLWINRFLGEPSVLTLKDRIDPGWYRAVNTQSCPLECDCPIQWPTAIYCDHRGLNQLPSGLPFRLQYLFLQGNNITSLGSRAFDNTTYLRWLILDHNELLSEQLDNVLFSSLTRLVNLFINHNNLTKVPAGLPSGLKQLRLAYNHIEKISEGDFQNLDSLTLILLQGNRLKTIEEGDFKGLGALNLLDLSHNFLDTFPKHLPPSVQQLYLSNNSLTGLSENSLHAFSGLRYLRLGHNKLRNERLDPGAFNLTSLVELDLSYNRLTEIPSVPITLQYLYLEVNHIQEFNVSSFCRTVGPTSYSRMKILRLDGNKLEYHKLPPDWVFCLRVLHNIYI,failed
11,MDLELDEYYNKTLATENNTAATRNSDFPVWDDYKSSVDDLQYFLIGLYTFVSLLGFMGNLLILMALMKKRNQKTTVNFLIGNLAFSDILVVLFCSPFTLTSVLLDQWMFGKVMCHIMPFLQCVSVLVSTLILISIAIVRYHMIKHPISNNLTANHGYFLIATVWTLGFAICSPLPVFHSLVELQETFGSALLSSRYLCVESWPSDSYRIAFTISLLLVQYILPLVCLTVSHTSVCRSISCGLSNKENRLEENEMINLTLHPSKKSGPQVKLSGSHKWSYSFIKKHRRRYSKKTACVLPAPERPSQENHSRILPENFGSVRSQLSSSSKFIPGVPTCFEIKPEENSDVHELRVKRSVTRIKKRSRSVFYRLTILILVFAVSWMPLHLFHVVTDFNDNLISNRHFKLVYCICHLLGMMSCCLNPILYGFLNNGIKADLVSLIHCLHM,failed
12,MDLETLRARREAVLSLCARHGAVRVRVFGSVARGEAREDSDLDLLVAFEEGRTLLDHARLKLALEGLLGVRVDIVSERGLAPRLREQVLREAIPL,not failed
13,MDLFPEEIYVFTPDGRIIELPMGATAIDFAYAVHTDVGNSCVGVKVDRKPYPMSRPIDSGQTIEVITSASARPNATWLEHHHHHH,failed
14,MDLGILSQLLILLFVSMLLGVLFSKFKIPDVVAYILTGVLVGNGFLKIVSPSVPISDIESVSLFFIILAIGVEANTEYIYGNVRRSIILTISSFIAPSMLGFLYLQAVAHLPIIPAFVLSMSVGVPSISIISVLLMRYDLLKLNAGRLILSSVVLTDTSAFIILSSTYESVTKVLISFGFVVLFLFAIWLFDILIRRRAGRIIEWISRRETDNNMEYILFSLVIIAGLLVSTLFEFIGITYVLGAFYAGILIHEASIGQKYHKIILNTIKRINDSFFIPLFFSIAGISMILPKISIFMIFLPALLILMGASGGLTYLVSHRLIRSLEPIKVVSILGGRGAVGVIIATIAFQSGIIDVAVYSLALIGTVIFSLVMTPLVSIGNAPSQNDDVRYS,failed
15,MDLKGGESMVDWKLMQEIIEAPGVSGYEHLGIRDIVVDVLKEVADEVKVDKLGNVIAHFKGSSPRIMVAAHMDKIGVMVNHIDKDGYLHIVPIGGVLPETLVAQRIRFFTEKGERYGVVGVLPPHLRRGQEDKGSKIDWDQIVVDVGASSKEEAEEMGFRVGTVGEFAPNFTRLNEHRFATPYLDDRICLYAMIEAARQLGDHEADIYIVGSVQEEVGLRGARVASYAINPEVGIAMDVTFAKQPHDKGKIVPELGKGPVMDVGPNINPKLRAFADEVAKKYEIPLQVEPSPRPTGTDANVMQINREGVATAVLSIPIRYMHSQVELADARDVDNTIKLAKALLEELKPMDFTP,not failed
16,MDLLERLGLGGRRVLILHHDDLGLTHAQNGAYQALGLPTGSVMVPGAWASGVKGEDLGVHLVLTSEWPAPRMRPLTEGESLRDEAGYFPESLEALWRKARAEEVERELKAQIQAAAKLFSPTHLDAHQGAVLRPDLAEVYLRLAEAYRLVPLVPESLEGLGVPPPFLPELERLLYETPFPQVRFLDPYGLPPEERLGFYLDLAHLPPGLYYLVHHSALPTPEGRALPDWPTREADYFALSHPEVRRVLAEFHPLTWRAVREALF,not failed
17,MDLLKNIFKGDKVIWIIFLCLCLISIIEVFSAASTLTYKSGDHWGPITQHSIILMVGAVVVVLMHNIPYKWFQVFPVFLYPISVVLLAFVTLMGVITGDRVNGAARWMSFMGLQFQPSELAKMAVIIAVSFILSKKQDDEGANPKAFKYIMILTGLVCMLIAPENLSTAMLLFGVVVLMMFIGRVAFKKLAMLLGGLALVGCLGAVFLLAIPKDTDIPFLHRFDTWKSRITNFTEKEEVPAAKFDIDKDAQIAHARIAIATSNVIGKAPGNSIQRDFLSQAFSDFIFAIIIEELGLVGGAFVVILYIWLLVRTGRIAQKCERTFPAFLVMGIALMLVSQAILNMMVAVGLFPVTGQPLPLISKGGTSTLINCAYIGMILSVSRYTAYLEEKKENPAPLLTQSEGNETIASEAQTAAEPTAEVLNSDAKFEE,failed
18,MDLPVMPPVKPMLAKSVAKIPPGMHYEAKWDGFRAIVYRDGDEVELGSRTGKPLTRYFPELVVAVRERLPERCVVDGEIVIARDGHLDFDALTERIHPADSRVRTLAERTPASLVAFDLLALDDASLLDVGLADRRALLVRALSGVTPPVHVAPATDDIEVARRWFEQYEGAGLDGVVAKPLDLRYRQDERAMYKIKHERTADVVVAGYRFHKSGPVVGSLLLGLYDDRGLLQHVGVSAAFTMKRRAELVAELEPLRMDDARGHPWAAWAEEAAHESARLPGAPSRWSGKKDLSWVPLRPERVVEVAYDHMENGARFRHTARFRRWRPDRTPESCTYAQLEEPVRYDLAEILGGPLEHHHHHH,failed
19,MDLSLLKALSEADAIASSEQEVRQILLEEAARLQKEVRFDGLGSVLIRLNESTGPKVMICAHMDEVGFMVRSISREGAIDVLPVGNVRMAARQLQPVRITTREECKIPGLLDGDRQGNDVSAMRVDIGARTYDEVMQAGIRPGDRVTFDTTFQVLPHQRVMGKAFDDRLSCYLLVTLLRELHDAELPAEVWLVASSSEEVGLRGGQTATRAVSPDVAIVLDTACWAKNFDYGAANHRQIGNGPMLVLSDKSLIAPPKLTAWIETVAAEIGVPLQADMFSNGGTDGGAVHLTGTGVPTLVMGPATRHGHCAASIADCRDILQMEQLLSALIQRLTRETVVQLTDFR,not failed
20,MDLSLSTRTVGDRTVVEVGGEIDVYTAPKLREQLVELVNDGNFHLVVDMEGVDFLDSTGLGVLVGGLKRVRAHEGSLRLVCNQERILKIFRITGLTKVFPIHTSVEEAVAATD,failed
21,MDLVKIDETLDDLQIKDIHIIQKKEGFRFGVDAVLLANYAKVKSNQTVIDLCSGTGIIPFIIQGKKSPRHITGIEIQEDMVQMANRTVLYNKFQEKIKFINEDIKNLAELKKLERVDVVTVNPPYKLRNSGIVNEFDKNAIARHEICCTLEDVIKAARTLLKDNGRLFMVHRPERLADILCLMREYKIEPKSIKMVYPSVNKAPNIVLIEGQRDGGAFLKWEKSLYIHKENGEYTEELNEIYGR,failed
22,MDLVLDLLATVSRWSRSNLSEISLALVGCLLVLFGTDVKAWAEQRLGGLAGALRVPFMALMVMIGSGAALIYATPWVVKGLSQFNNYALAPVLLVVLVLIGVVADRRG,failed
23,MDMNTLLSLSWHLMVPEFIILGAAILLSICDLFFKLNHRYVALGAIASVVLAIVSLITLYSEPTGDILNGSFVLDGFSKGFKTLLLGGAALILCIAMSDDKKNPIEDKGEYYYLFLMALLGAMFMASSVDFITLFVGLELLSLSSYILVGIRKKNLTSNEAAMKYVINGGIGTAITLFGMSYLYGITGSTNIVDMQKVFAGELAGGIQLLLALAFLLLLVGLSFKIATVPFHMWAPDVYEGAATPVTAFLGTISKIAGFLLIIRLFLMVFASVSVQGDTQSLYGRMSIYIAVLASITMIIGNVVALKQYNVKRLFAYSGIAHAGYLLVPLVALSPFTMDSMWFYMLAYMLMNIGAFAIIHGLILQSDKENITIFTGLYKRSPFTAIVMTIFILSLAGIPGTAGFIGKINIFLGALHVEPAHYVLASIMMGTTVISFVYYFRILQQMFFRTGEVEEKIRLPLNIKVVMSLCAISIVILGIMPMIGYNFFYEYFPLMKDFFFLGNVVQ,failed
